The results in this text go back to US20230192801A1.

The experiment addresses membrane-associated human IR-A (plasma membranes of BHK cells stably transfected with human IR-A) (human) (UniProt P06213). In words: competition SPA, displacement of [125I-A14Y]-human insulin from membrane-associated human IR-A; affinity relative to human insulin standard.

With “A9E, B3E, B26E, desB30 human insulin (ligand)”, the hIRA mem (% rel to HI), relative binding affinity is 55.8 % rel to HI. “A9E, B3E, B27E, B28E, desB30 human insulin (ligand)”: the hIRA mem (% rel to HI), relative binding affinity was 35.4 % rel to HI.
